The values below come from patent US20240239894A1 (AstraZeneca / MedImmune, published 2024).

Numbering of substitutions follows the chain as printed. Read-outs that look alike come from different tables or passages of the source.

One assay has as its target T1, huBTN1A1 (human, UniProt Q13410 27-242, limits assumed).
T1 construct: Sourced antigen; construct not described; also called Human BTN1A1
T1 sequence (looked up): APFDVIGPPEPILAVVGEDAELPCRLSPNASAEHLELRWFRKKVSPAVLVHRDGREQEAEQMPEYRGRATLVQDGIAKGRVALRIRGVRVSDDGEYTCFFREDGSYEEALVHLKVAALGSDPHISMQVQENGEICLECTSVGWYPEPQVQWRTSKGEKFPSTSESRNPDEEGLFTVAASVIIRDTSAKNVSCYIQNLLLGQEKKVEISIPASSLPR
As to the kind of experiment: ELISA.

Another assay has as its target T2, huB7-H2 (human, UniProt O75144 19-258).
T2 construct: Sourced antigen; construct not described; also called Human B7-H2
T2 sequence (looked up): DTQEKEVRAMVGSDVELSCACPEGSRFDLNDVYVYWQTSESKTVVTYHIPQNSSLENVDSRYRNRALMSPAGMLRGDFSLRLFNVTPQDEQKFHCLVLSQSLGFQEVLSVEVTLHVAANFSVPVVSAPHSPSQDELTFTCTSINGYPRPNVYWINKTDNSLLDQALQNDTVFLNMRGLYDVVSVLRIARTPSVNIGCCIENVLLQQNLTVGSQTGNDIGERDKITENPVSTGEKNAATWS
The experiment in a line: ELISA.

The target in a further assay is T3, huHHLA2 (human, UniProt Q9UM44 23-344).
T3 construct: Sourced antigen; construct not described; also called Human HHLA2
T3 sequence (looked up): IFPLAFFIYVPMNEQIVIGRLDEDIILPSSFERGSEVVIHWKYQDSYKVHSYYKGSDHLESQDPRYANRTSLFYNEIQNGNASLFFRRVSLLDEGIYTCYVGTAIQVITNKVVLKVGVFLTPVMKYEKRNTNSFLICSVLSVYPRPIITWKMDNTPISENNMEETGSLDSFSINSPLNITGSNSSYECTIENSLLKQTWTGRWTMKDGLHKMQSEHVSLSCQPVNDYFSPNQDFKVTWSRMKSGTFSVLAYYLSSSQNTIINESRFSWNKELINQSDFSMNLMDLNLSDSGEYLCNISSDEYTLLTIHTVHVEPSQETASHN
The experiment in a line: ELISA.

Another assay deals with T4, huB7-H3 (human, UniProt Q5ZPR3 29-461, limits assumed).
T4 construct: Sourced antigen; construct not described; also called Human B7-H3
T4 sequence (looked up): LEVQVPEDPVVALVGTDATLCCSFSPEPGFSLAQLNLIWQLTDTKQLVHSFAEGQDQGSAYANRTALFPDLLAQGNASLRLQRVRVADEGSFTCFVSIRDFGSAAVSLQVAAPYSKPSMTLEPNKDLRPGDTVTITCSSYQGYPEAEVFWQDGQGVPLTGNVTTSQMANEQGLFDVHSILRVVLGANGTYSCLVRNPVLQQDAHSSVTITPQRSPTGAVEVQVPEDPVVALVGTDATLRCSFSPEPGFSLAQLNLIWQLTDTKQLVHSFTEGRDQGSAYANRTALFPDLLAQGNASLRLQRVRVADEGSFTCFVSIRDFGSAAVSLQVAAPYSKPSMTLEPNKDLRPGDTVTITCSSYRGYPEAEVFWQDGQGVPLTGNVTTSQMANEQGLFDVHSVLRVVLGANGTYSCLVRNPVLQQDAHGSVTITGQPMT
As to the kind of experiment: ELISA.

In another assay the target is T5, huB7-H1 (human, UniProt Q9NZQ7 19-238).
T5 construct: Sourced antigen; construct not described; also called Human B7-H1
The experiment in a line: ELISA.

A further assay deals with T6, huBTN3A2 (human, UniProt P78410 30-248, limits assumed).
T6 construct: Sourced antigen; construct not described; also called Human BTN3A2
As to the kind of experiment: ELISA.

In assay [1] the target is T7, Murine B7-H4 ECD-Flag-His10 (monomeric) (mouse, UniProt Q7TSP5 25-257).
T7 construct: extracellular domain; also called FlagHis10 murine B7-H4
T7 sequence (looked up): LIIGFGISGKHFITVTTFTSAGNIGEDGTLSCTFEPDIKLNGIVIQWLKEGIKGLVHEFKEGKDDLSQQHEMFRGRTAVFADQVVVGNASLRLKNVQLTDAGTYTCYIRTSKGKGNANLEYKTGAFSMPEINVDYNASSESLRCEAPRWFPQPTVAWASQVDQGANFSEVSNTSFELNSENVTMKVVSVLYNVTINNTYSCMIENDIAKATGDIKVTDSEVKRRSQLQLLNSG
The experiment in a line: Octet BLI; end of the range tied to the member by Table 9.

Assay [2] deals with T8, Human B7-H4-Fc (Human B7H4 ECD, Fc_6His) (human).
T8 construct: also called FcHis6 tagged human B7-H4
T8 sequence (Q7Z7D3 whole entry, looked up): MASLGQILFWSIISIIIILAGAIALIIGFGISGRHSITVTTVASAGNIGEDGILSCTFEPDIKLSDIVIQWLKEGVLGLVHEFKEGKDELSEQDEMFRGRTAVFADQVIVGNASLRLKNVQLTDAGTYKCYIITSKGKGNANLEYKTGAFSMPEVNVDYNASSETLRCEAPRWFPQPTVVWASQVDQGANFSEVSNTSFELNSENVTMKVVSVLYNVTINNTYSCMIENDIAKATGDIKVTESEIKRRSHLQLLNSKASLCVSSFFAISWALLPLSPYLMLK
As to the kind of experiment: ELISA, absorbance 450 nm; x axis printed as antigen concentration (µg/ml).

Assay [3] concerns the target T9, Human B7-H4 ECD-Flag-His10 (monomeric) (human, UniProt Q7Z7D3 25-259).
T9 construct: Minimally biotinylated for KinExA; also called hB7H4-ECD-Flag-His10; B7-H4-FLAG
T9 sequence: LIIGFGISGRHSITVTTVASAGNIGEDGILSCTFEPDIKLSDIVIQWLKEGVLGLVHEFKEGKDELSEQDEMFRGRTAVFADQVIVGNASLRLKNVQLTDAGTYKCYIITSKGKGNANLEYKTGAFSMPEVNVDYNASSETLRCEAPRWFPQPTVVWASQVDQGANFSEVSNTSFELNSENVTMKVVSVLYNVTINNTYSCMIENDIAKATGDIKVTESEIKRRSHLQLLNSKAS
Described as above.

The target in assay [4] is T9, Human B7-H4 ECD-Flag-His10 (monomeric). Described as above. This is another data set of the same source.
Assay [5] shares this target. The experiment in a line: Octet BLI; end of the range tied to the member by Table 9.
For assay [6], the target named is T10, Human B7H4 ECD (SV), splice variant, 10His_FLAG (human).
T10 construct: also called B7-H4-SV
Described as above.

T6 sequence (P78410 30-248 limits assumed): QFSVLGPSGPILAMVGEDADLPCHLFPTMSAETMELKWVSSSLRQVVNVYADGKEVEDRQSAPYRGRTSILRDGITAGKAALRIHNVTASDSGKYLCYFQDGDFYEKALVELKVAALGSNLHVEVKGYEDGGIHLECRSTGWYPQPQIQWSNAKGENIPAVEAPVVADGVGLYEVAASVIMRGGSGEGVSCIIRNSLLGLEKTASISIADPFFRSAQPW
T5 sequence (Q9NZQ7 19-238 limits assumed): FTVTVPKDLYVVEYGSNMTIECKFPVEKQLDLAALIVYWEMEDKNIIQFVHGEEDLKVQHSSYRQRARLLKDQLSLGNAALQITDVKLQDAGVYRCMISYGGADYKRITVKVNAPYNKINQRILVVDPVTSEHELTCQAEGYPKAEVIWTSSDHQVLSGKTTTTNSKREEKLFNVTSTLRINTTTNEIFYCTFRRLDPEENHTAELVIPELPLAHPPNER

B1: ZY0EQD-E02 human IgG1-TM (antibody, V domains shown)
VH: QVQLQQWGAGLLKPSETLSLTCAVYGGSFSGYYWNWIRQPPGKGLEWIGEINHSGSTSYNPSLKSRVTISVDTSKNQFSLKLSSVTAADTAVYYCARVLYNWNVDSWGQGTLVTVSS
VL: DIQMTQSPSSLSASVGDRVTITCRASQDIRNDVGWYQQKPGKAPKRLIYAASRLQSGVPSRFSGSGSGTEFTLTISSLQPEDFATYYCLQHNSYPRTFGQGTKVEIK
As to B1, the binding result in the assay with huBTN1A1, in the assay with huB7-H2, with huHHLA2, in the assay with huB7-H3, with huB7-H1 and with huBTN3A2 was “no binding” throughout. Moreover, the Kd in assay [1] is 10 to 600 nM. Further, the “EC50 (read off the curve)” value in assay [2] is ~0.09 µg/mL; in assay [3], ~0.08 µg/mL.

B2: ZY0EPQ-E02 human IgG1-TM (antibody, V domains shown)
VH: B1 VH with S58N, S70L, V98N, V104L
VL: B1 VL with D28G, V33L, K42R, A50V, R53S
Turning to B2, the binding result with huBTN1A1, in the assay with huB7-H2, with huHHLA2, with huB7-H3, with huB7-H1 and with huBTN3A2 was “no binding” in each case. Moreover, the “EC50 (read off the curve)” value in assay [4] was ~0.3 µg/mL. The Kd in assay [5] fell in the range of 10 to 25 nM; in assay [6] it was 200 to 1600 nM.

B3: ZY0EOB-F05 human IgG1-TM (antibody, V domains shown)
VH: QVQLQESGPGLVKPSQTLSLTCTVSDGSISSGGYYWSWIRQHPGKGLEWIGNIYYSGSTYYNPSLKSRVTISVDTSKNQFSLKLNSVTAADTAVYYCATEKALATVTPSGYENYYTVDVWGQGTTVTVSS
VL: DIQLTQSPSFLSASVGDRVTITCWASQGISSYLAWYQQKPGKAPKLLIYAASTLQSGVPSRFSGSGSGTEFTLTISSLQPEDFATYYCQHLNSYPLTFGGGTKVEIK
Turning to B3, the binding result in the assay with huBTN1A1, with huB7-H2, in the assay with huHHLA2, in the assay with huB7-H3, in the assay with huB7-H1 and in the assay with huBTN3A2 was “no binding” in each case. Moreover, in assay [6], the dissociation constant (Kd) was in the range of 200 to 1600 nM.

B4: ZY0EP0-C07 human IgG1-TM (antibody, V domains shown)
VH: QVQLVESGGVLVKPGGSLRLSCAASGFTLSDYYMSWIRQAPGMGLEWVSYISSSGSTIYYTDSVKGRFTISRDSAKNSLYLQMNSLRAEDTAVYYCARDGVGFDYWGQGTLVTVSS
VL: EIVLTQSPGTLSLFPGERATLSCRASQSVSSSYLAWYQQKPGQSPRLLIYAASSRATGIPDRFSGSGSGTDFTLTISRLEPEDFAVYYCQQYGSSPLYTFGQGTKLEIK
notes: also called ZY0EPO-C07
For the molecule B4, the binding result with huBTN1A1, with huB7-H2, in the assay with huHHLA2, with huB7-H3, with huB7-H1 and with huBTN3A2 was “no binding” each time. Further, the results for the Kd in [1] and in assay [5] were 10 to 600 nM and 10 to 25 nM, respectively.
